From patent US20230151095A1 (Xencor, published 2023)

Target: T1, NKG2D (human, UniProt P26718 78-216, limits assumed)
T1 construct: XENP25379 (human) and XENP25380 (cynomolgus) were the panning antigens; also called Recombinant human NKG2D (XENP25379); CD314
T1 sequence (looked up): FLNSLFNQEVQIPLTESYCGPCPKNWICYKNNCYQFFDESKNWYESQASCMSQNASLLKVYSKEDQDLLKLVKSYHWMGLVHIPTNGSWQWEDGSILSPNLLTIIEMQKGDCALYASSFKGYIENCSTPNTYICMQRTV
Test: ELISA of phage clones on NKG2D

binding result: binds
B1: 1D2B4[NKG2D] (antibody, V domains shown)
VH: EVQLLESGGGLVQPGGSLRLSCAASGFTFSSFGMSWVRQAPGKGLEWVSTISGSGSTTYYADSVKGRFTISRDNSKNTLYLQMNSLRAEDTAVYYCAKGVFSEWHYYFDYWGQGTLVTVSS
VL: not shown
